# Experimental data reported in patent US20160200814A1, “IMMUNORECEPTOR MODULATION FOR TREATING CANCER AND VIRAL INFECTIONS” (THE COUNCIL OF THE QUEENSLAND INSTITUTE OF MEDICAL RESEARCH, priority 2013, published 2016).
# T1: CD155 at the cell surface of B16F10 (Mus musculus, UniProt F6V4I7)
# T1 construct: at the cell surface of B16F10 cells; endogenous in cells; host or cells: B16F10 melanoma cells
# T1 sequence (F6V4I7 29-408): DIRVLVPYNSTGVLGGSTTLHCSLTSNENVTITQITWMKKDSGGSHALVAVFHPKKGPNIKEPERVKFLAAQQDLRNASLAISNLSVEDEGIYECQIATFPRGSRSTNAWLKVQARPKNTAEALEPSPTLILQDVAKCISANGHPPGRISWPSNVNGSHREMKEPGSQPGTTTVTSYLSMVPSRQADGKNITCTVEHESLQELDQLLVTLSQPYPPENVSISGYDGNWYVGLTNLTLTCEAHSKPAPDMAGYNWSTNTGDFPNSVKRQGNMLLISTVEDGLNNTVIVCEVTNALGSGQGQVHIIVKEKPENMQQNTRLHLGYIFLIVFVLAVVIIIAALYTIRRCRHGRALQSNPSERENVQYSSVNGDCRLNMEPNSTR
# B1: recombinant CD96: recombinant CD96 protein used at 50 μg/ml as competitor of DNAM-1-Fc binding (protein, UniProt P40200 22-585, looked up)
# T-cell surface protein tactile: VWEKTVNTEENVYATLGSDVNLTCQTQTVGFFVQMQWSKVTNKIDLIAVYHPQYGFYCAYGRPCESLVTFTETPENGSKWTLHLRNMSCSVSGRYECMLVLYPEGIQTKIYNLLIQTHVTADEWNSNHTIEIEINQTLEIPCFQNSSSKISSEFTYAWSVENSSTDSWVLLSKGIKEDNGTQETLISQNHLISNSTLLKDRVKLGTDYRLHLSPVQIFDDGRKFSCHIRVGPNKILRSSTTVKVFAKPEIPVIVENNSTDVLVERRFTCLLKNVFPKANITWFIDGSFLHDEKEGIYITNEERKGKDGFLELKSVLTRVHSNKPAQSDNLTIWCMALSPVPGNKVWNISSEKITFLLGSEISSTDPPLSVTESTLDTQPSPASSVSPARYPATSSVTLVDVSALRPNTTPQPSNSSMTTRGFNYPWTSSGTDTKKSVSRIPSETYSSSPSGAGSTLHDNVFTSTARAFSEVPTTANGSTKTNHVHITGIVVNKPKDGMSWPVIVAALLFCCMILFGLGVRKWCQYQKEIMERPPPFKPPPPPIKYTCIQEPNESDLPYHEMETL
# Target: T1, CD155 at the cell surface of B16F10
# Assay: Binding of DNAM-1-Fc (AF-647) at the cell surface of B16F10 cells, flow cytometry
# Details: FIG. 3c; DNAM-1-Fc AF-647 0.5-20 μg/ml; competitor 50 μg/ml; versus control Ig
# From the text: FIG. 3: CD96 limits NK cell-dependent tumor immunosurveillance. a, b. CD96 and DNAM-1 have an opposite role in the control of B16F10 metastasis. a. 2×10^5 B16F10 cells were intravenously injected into WT, CD96^−/−, DNAM-1^−/− and DNAM-1^−/− CD96^−/− mice and metastatic burden was quantified in the lungs after 14 days. Representative experiment out of 3. b. Pictures showing the lung of WT and CD96^−/− mice two weeks after the injection of 2×10^5 and 5×10^5 B16F10 cells. Representative experiment out of two. c. […] The binding of DNAM-1-Fc labeled with AF-647 (0.5-20 μg/ml) at the cell surface of B16F10 cells was analyzed in the presence of 50 μg/ml of control Ig, recombinant CD96 or TIGIT-Fc. The FACS histograms and the mean±SD of triplicate wells from one representative experiment out of 3 are shown. d. A 4 hr^51 Cr release assay was performed between B16F10 cells and IL-2-activated NK cells from WT, DNAM-1^−/− and CD96^−/− mice at the indicated effector target ratios. Solid circles represent WT NK cells, open circles represent CD96^−/− NK cells and solid squares represents DNAM-1^−/− NK cells. e-h. CD96 and DNAM-1 have an opposite role in the immunosurveillance of MCA induced fibrosarcoma mediated by NK cells. e-h Groups of 15-30 male, WT, DNAM-1^−/− and CD96^−/− and DNAM-1^−/− CD96^−/− mice were injected with MCA (100 μg/mouse). […]
molecule,measurement,value
B1,competition with DNAM-1-Fc binding to CD155,compete with DNAM-1 for the binding of CD155 at the cell surface of B16F10
